Where two headings read alike, the source gives them in different places.
Experiments:
Assay in all cases: cell-based or functional assay
[1] = target: SARS-CoV-2 Alpha (B.1.1.7) spike (S) protein (SARS-CoV-2) (UniProt P0DTC2)
[2] = target: SARS-CoV-2 Alpha spike (S) protein (SARS-CoV-2) (UniProt P0DTC2)
[3] = target: SARS-CoV-2 Beta (B.1.351) spike (S) protein (SARS-CoV-2) (UniProt P0DTC2)
[4] = target: SARS-CoV-2 Beta spike (S) protein (SARS-CoV-2) (UniProt P0DTC2)
[5] = target: SARS-CoV-2 Delta spike (S) protein (SARS-CoV-2) (UniProt P0DTC2)
[6] = target: SARS-CoV-2 Gamma (P.1) spike (S) protein (SARS-CoV-2) (UniProt P0DTC2)
[7] = target: SARS-CoV-2 Gamma spike (S) protein (SARS-CoV-2) (UniProt P0DTC2)
[8] = target: SARS-CoV-2 Omicron (BA.1) spike (S) protein, live virus isolate (SARS-CoV-2) (UniProt P0DTC2)
[9] = target: SARS-CoV-2 Omicron BA.1 spike (S) protein of the live isolate (SARS-CoV-2) (UniProt P0DTC2)
[10] = target: SARS-CoV-2 Omicron BA.1 spike (S) protein of the pseudovirus (SARS-CoV-2) (UniProt P0DTC2)
[11] = target: SARS-CoV-2 Omicron BA.1 spike (S) protein, pseudovirus construct (SARS-CoV-2) (UniProt P0DTC2)
[12] = target: SARS-CoV-2 Omicron BA.1.1 spike (S) protein (SARS-CoV-2) (UniProt P0DTC2)
[13] = target: SARS-CoV-2 Omicron BA.1.1 spike (S) protein, pseudovirus construct (SARS-CoV-2) (UniProt P0DTC2)
[14] = target: SARS-CoV-2 Omicron BA.2 spike (S) protein (SARS-CoV-2) (UniProt P0DTC2)
[15] = target: SARS-CoV-2 Omicron BA.2 spike (S) protein, pseudovirus construct (SARS-CoV-2) (UniProt P0DTC2)
[16] = target: SARS-CoV-2 Omicron BA.3 spike (S) protein (SARS-CoV-2) (UniProt P0DTC2)
[17] = target: SARS-CoV-2 Omicron BA.3 spike (S) protein, pseudovirus construct (SARS-CoV-2) (UniProt P0DTC2)
[18] = target: SARS-CoV-2 Omicron BA.4/5 spike (S) protein (SARS-CoV-2) (UniProt P0DTC2)
[19] = target: SARS-CoV-2 Victoria spike (S) protein (SARS-CoV-2) (UniProt P0DTC2)
[20] = target: SARS-CoV-2 spike (S) protein, Omicron BA.1 (SARS-CoV-2) (UniProt P0DTC2)
[21] = target: SARS-CoV-2 spike (S) protein, Omicron BA.1.1 (SARS-CoV-2) (UniProt P0DTC2)
[22] = target: SARS-CoV-2 spike (S) protein, Omicron BA.2 (SARS-CoV-2) (UniProt P0DTC2)
[23] = target: SARS-CoV-2 spike (S) protein, Omicron BA.2.75 (SARS-CoV-2) (UniProt P0DTC2)
[24] = target: SARS-CoV-2 spike (S) protein, Omicron BA.3 (SARS-CoV-2) (UniProt P0DTC2)
[25] = target: SARS-CoV-2 spike (S) protein, Omicron BA.4/5 (SARS-CoV-2) (UniProt P0DTC2)
[26] = target: SARS-CoV-2 spike (S) protein, Victoria strain (SARS-CoV-2) (UniProt P0DTC2)
[27] = target: SARS-CoV-2 spike (S) protein, Omicron BA.2 (SARS-CoV-2) (UniProt P0DTC2); remark: listed apart in the source
[28] = target: SARS-CoV-2 spike (S) protein, Omicron BA.2.75 (SARS-CoV-2) (UniProt P0DTC2); remark: listed apart in the source
[29] = target: SARS-CoV-2 spike (S) protein, Omicron BA.2 (SARS-CoV-2) (UniProt P0DTC2); remark: listed apart in the source
[30] = target: SARS-CoV-2 spike (S) protein, Omicron BA.2.3.20 (SARS-CoV-2) (UniProt P0DTC2)
[31] = target: SARS-CoV-2 spike (S) protein, Omicron BA.2.75 (SARS-CoV-2) (UniProt P0DTC2); remark: listed apart in the source
[32] = target: SARS-CoV-2 spike (S) protein, Omicron BA.2.75.2 (SARS-CoV-2) (UniProt P0DTC2)
[33] = target: SARS-CoV-2 spike (S) protein, Omicron BA.4.6 (SARS-CoV-2) (UniProt P0DTC2)
[34] = target: SARS-CoV-2 spike (S) protein, Omicron BA.4/5 (SARS-CoV-2) (UniProt P0DTC2); remark: listed apart in the source
[35] = target: SARS-CoV-2 spike (S) protein, Omicron BJ.1 (SARS-CoV-2) (UniProt P0DTC2)
[36] = target: SARS-CoV-2 spike (S) protein, Victoria strain (SARS-CoV-2) (UniProt P0DTC2); remark: listed apart in the source
[37] = target: SARS-CoV-2 spike (S) protein, Omicron BA.4.6 (SARS-CoV-2) (UniProt P0DTC2); remark: listed apart in the source
[38] = target: SARS-CoV-2 spike (S) protein, Omicron BA.1 (SARS-CoV-2) (UniProt P0DTC2); remark: listed apart in the source
[39] = target: SARS-CoV-2 spike (S) protein, Omicron BA.1.1 (SARS-CoV-2) (UniProt P0DTC2); remark: listed apart in the source
[40] = target: SARS-CoV-2 spike (S) protein, Omicron BA.2.75 (SARS-CoV-2) (UniProt P0DTC2); remark: listed apart in the source
[41] = target: SARS-CoV-2 spike (S) protein, Omicron BA.3 (SARS-CoV-2) (UniProt P0DTC2); remark: listed apart in the source
[42] = target: SARS-CoV-2 spike (S) protein, Omicron BA.4/5 (SARS-CoV-2) (UniProt P0DTC2); remark: listed apart in the source
[43] = target: SARS-CoV-2 spike (S) protein, Victoria strain (SARS-CoV-2) (UniProt P0DTC2); remark: listed apart in the source

Chain of Omi-42 (antibody) (VH): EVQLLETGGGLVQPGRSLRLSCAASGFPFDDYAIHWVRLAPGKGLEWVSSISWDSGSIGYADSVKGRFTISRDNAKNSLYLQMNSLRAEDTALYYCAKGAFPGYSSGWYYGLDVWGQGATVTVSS
Chain of Omi-42 (antibody) (VL): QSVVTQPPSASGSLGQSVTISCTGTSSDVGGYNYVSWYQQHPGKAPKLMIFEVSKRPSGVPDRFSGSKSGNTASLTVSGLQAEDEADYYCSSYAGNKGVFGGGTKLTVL

Omi-42 (antibody)
Authentic virus-IC50 [1]: 0.024 µg/mL | IC50, authentic virus neutralization [2]: 0.024 µg/mL | Authentic virus-IC50 [3]: 0.011 µg/mL | IC50, authentic virus neutralization [4]: 0.011 µg/mL | Authentic virus-IC50 [5]: 0.019 µg/mL | IC50, authentic virus neutralization [5]: 0.019 µg/mL | Authentic virus-IC50 [6]: 0.013 µg/mL | IC50, authentic virus neutralization [7]: 0.013 µg/mL | Authentic virus-IC50 [8]: 0.014 µg/mL | IC50, authentic virus neutralization [9]: 0.014 µg/mL | IC50, pseudovirus neutralization [10]: 0.007 µg/mL | Pseudovirus - IC50 [11]: 0.007 µg/mL | IC50, authentic virus neutralization [12]: 0.017 µg/mL | IC50, pseudovirus neutralization [12]: 0.006 µg/mL | Pseudovirus - IC50 [13]: 0.006 µg/mL | IC50, authentic virus neutralization [14]: 0.031 µg/mL | IC50, pseudovirus neutralization [14]: 0.021 µg/mL | Pseudovirus - IC50 [15]: 0.021 µg/mL | IC50, pseudovirus neutralization [16]: 0.025 µg/mL | Pseudovirus - IC50 [17]: 0.025 µg/mL | IC50, pseudovirus neutralization [18]: 0.013 µg/mL | Authentic virus-IC50 [19]: 0.016 µg/mL | IC50, authentic virus neutralization [19]: 0.016 µg/mL | IC50, pseudovirus neutralization [19]: 0.013 µg/mL | Pseudovirus - IC50 [19]: 0.013 µg/mL | pseudovirus neutralisation IC50 [20]: 0.007 µg/mL | pseudovirus neutralisation IC50 [21]: 0.006 µg/mL | pseudovirus neutralisation IC50 [22]: 0.021 µg/mL | pseudovirus neutralisation IC50 [23]: 0.003 µg/mL | pseudovirus neutralisation IC50 [24]: 0.025 µg/mL | pseudovirus neutralisation IC50 [25]: 0.013 µg/mL | pseudovirus neutralisation IC50 [26]: 0.013 µg/mL | pseudovirus neutralisation IC50 [27]: 0.021 µg/mL | pseudovirus neutralisation IC50 [28]: 0.003 µg/mL | IC50, pseudoviral neutralization [29]: 0.021 µg/mL | IC50, pseudoviral neutralization [30]: 0.018 µg/mL | IC50, pseudoviral neutralization [31]: 0.003 µg/mL | IC50, pseudoviral neutralization [32]: 0.011 µg/mL | IC50, pseudoviral neutralization [33]: 0.01 µg/mL | IC50, pseudoviral neutralization [34]: 0.013 µg/mL | IC50, pseudoviral neutralization [35]: 0.01 µg/mL | IC50, pseudoviral neutralization [36]: 0.013 µg/mL

S309 (antibody)
IC50, authentic virus neutralization [2]: 0.078 µg/mL | IC50, authentic virus neutralization [4]: 0.082 µg/mL | IC50, authentic virus neutralization [5]: 0.113 µg/mL | IC50, authentic virus neutralization [7]: 0.076 µg/mL | IC50, authentic virus neutralization [9]: 0.256 µg/mL | IC50, authentic virus neutralization [12]: 1.12 µg/mL | IC50, authentic virus neutralization [14]: 5.04 µg/mL | IC50, authentic virus neutralization [19]: 0.04 µg/mL | IC50, pseudoviral neutralization [20]: 0.113 µg/mL | pseudovirus neutralisation IC50 [20]: 0.094 µg/mL | IC50, pseudoviral neutralization [21]: 0.142 µg/mL | pseudovirus neutralisation IC50 [21]: 0.138 µg/mL | IC50, pseudoviral neutralization [22]: 0.638 µg/mL | pseudovirus neutralisation IC50 [22]: 0.638 µg/mL | IC50, pseudoviral neutralization [24]: 0.311 µg/mL | pseudovirus neutralisation IC50 [24]: 0.228 µg/mL | IC50, pseudoviral neutralization [37]: 1.03 µg/mL | IC50, pseudoviral neutralization [25]: 0.689 µg/mL | pseudovirus neutralisation IC50 [25]: 1.04 µg/mL | IC50, pseudoviral neutralization [26]: 0.079 µg/mL | pseudovirus neutralisation IC50 [26]: 0.13 µg/mL | pseudovirus neutralisation IC50 [38]: 0.113 µg/mL | pseudovirus neutralisation IC50 [39]: 0.142 µg/mL | pseudovirus neutralisation IC50 [40]: 0.202 µg/mL | pseudovirus neutralisation IC50 [41]: 0.311 µg/mL | pseudovirus neutralisation IC50 [42]: 0.689 µg/mL | pseudovirus neutralisation IC50 [43]: 0.079 µg/mL | IC50, pseudoviral neutralization [29]: 0.638 µg/mL | IC50, pseudoviral neutralization [30]: 0.977 µg/mL | IC50, pseudoviral neutralization [31]: 0.202 µg/mL | IC50, pseudoviral neutralization [32]: 0.465 µg/mL | IC50, pseudoviral neutralization [33]: 1.03 µg/mL | IC50, pseudoviral neutralization [34]: 0.689 µg/mL | IC50, pseudoviral neutralization [35]: 0.431 µg/mL | IC50, pseudoviral neutralization [36]: 0.079 µg/mL
